Legend:
[1] = target: soluble hFcγRIIIa(V) (human) (UniProt P08637); experiment: SPR, BIAcore 2000; shFcγRIIIa captured by anti-His antibody on CM5 chip, antibody in flow (0.625 to 20 µg/ml)
[2] = target: soluble hFcγRIIIa(V) (human) (UniProt P08637); experiment: SPR, BIAcore 2000; end of the range tied to this antibody by Table 3 (0.48/0.28)
[3] = target: soluble hFcγRIIIa(F) (human) (UniProt P08637); experiment: SPR, BIAcore 2000; shFcγRIIIa captured by anti-His antibody on CM5 chip; KA from the equilibrium value of the binding

- Ka [1]: 4.8e+06 M⁻¹
- koff [1]: 0.0071 s⁻¹
- kon [1]: 34000 M⁻¹ s⁻¹
- fold higher KA for shFcγRIIIa(V) than for shFcγRIIIa(F) [2]: 2 to 3 times
- Ka [3]: 2.8e+06 M⁻¹
Substance: Rituxan™ (antibody)

— patent publication US20050031613A1
